The text below walks through data of publication PMC12335590.

In the assay the target is mouse platelet glycoprotein Ibα (mouse (endogenous in platelets)) (UniProt O35930).
Sequence of UniProt O35930 (O35930 17-734): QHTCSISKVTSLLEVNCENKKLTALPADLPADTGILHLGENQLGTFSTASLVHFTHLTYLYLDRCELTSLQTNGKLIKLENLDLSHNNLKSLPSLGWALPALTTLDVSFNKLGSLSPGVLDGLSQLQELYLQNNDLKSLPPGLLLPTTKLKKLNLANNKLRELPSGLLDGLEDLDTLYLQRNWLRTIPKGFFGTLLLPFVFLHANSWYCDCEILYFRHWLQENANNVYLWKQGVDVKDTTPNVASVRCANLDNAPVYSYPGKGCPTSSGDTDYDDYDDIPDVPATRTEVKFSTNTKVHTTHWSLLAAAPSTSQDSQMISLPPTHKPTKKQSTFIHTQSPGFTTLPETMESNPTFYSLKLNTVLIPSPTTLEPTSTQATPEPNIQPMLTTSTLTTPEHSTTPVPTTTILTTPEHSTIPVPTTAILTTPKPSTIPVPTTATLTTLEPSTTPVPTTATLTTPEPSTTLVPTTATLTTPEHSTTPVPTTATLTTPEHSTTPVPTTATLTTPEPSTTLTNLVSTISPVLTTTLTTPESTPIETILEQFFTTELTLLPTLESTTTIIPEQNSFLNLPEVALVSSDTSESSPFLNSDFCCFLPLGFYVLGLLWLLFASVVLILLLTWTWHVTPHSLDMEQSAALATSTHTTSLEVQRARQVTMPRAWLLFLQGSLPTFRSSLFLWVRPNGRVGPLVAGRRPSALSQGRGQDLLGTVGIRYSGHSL

“recombinant mouse von Willebrand factor, Q8CIZ8 764-2813”: the translocation (rolling) velocity of Mical1+/+ platelets on immobilised recombinant mouse VWF at 1500 s-1 after αIIbβ3 blockade turned out to be 1.41 μm/s.
